Measurements from article PMC9464592 (Nature, 2022).

Columns and labels:
Assay in all cases: SEC
WDR24 ∆CTD = target: T1, WDR24 ∆CTD (human, UniProt Q96S15 1-700)
T1 sequence (looked up): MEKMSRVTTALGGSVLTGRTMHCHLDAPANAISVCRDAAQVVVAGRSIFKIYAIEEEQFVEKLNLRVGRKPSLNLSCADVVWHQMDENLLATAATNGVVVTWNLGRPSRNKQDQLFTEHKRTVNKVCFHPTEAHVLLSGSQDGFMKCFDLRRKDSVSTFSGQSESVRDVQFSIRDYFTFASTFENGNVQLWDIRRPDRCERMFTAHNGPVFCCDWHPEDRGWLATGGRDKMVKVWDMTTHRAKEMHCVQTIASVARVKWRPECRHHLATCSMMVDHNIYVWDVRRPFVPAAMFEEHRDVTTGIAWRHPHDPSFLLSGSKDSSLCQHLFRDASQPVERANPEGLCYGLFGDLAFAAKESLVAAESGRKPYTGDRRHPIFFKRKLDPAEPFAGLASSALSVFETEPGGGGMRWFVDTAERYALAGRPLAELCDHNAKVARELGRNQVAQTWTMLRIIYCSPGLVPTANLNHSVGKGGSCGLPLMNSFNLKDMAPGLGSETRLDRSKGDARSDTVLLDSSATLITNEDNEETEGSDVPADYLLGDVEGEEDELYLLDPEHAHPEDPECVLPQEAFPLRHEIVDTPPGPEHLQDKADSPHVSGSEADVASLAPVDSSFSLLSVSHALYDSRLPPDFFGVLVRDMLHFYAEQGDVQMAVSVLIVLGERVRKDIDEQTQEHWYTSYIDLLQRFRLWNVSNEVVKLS

WDR59 ∆CTD = target: T2, WDR59 ∆CTD (human, UniProt Q6PJI9 1-890)
T2 sequence (looked up): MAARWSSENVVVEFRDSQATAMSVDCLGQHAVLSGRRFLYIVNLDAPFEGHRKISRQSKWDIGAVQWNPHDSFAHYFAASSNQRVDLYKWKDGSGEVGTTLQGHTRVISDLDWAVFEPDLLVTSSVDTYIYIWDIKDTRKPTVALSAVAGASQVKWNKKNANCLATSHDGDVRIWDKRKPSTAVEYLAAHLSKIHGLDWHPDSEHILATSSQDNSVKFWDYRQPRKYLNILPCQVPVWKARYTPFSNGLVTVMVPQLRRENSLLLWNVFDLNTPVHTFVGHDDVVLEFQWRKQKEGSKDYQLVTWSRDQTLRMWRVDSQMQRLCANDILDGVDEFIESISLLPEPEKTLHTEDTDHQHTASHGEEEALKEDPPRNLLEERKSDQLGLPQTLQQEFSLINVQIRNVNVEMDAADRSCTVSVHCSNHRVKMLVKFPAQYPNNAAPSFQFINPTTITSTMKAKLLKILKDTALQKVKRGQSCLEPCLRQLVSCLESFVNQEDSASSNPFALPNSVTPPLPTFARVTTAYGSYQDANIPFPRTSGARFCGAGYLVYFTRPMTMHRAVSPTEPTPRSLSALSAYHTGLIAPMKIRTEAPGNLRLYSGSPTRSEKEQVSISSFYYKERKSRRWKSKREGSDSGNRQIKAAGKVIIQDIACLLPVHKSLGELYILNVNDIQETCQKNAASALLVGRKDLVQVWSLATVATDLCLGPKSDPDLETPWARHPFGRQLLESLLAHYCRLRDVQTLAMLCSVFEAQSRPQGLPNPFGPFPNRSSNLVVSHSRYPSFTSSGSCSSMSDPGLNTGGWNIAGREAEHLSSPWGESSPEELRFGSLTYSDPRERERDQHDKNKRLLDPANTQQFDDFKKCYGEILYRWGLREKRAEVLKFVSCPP

MIOS A560E = target: T3, MIOS A560E (human, UniProt Q9NXC5 1-875, A560E)
T3 sequence: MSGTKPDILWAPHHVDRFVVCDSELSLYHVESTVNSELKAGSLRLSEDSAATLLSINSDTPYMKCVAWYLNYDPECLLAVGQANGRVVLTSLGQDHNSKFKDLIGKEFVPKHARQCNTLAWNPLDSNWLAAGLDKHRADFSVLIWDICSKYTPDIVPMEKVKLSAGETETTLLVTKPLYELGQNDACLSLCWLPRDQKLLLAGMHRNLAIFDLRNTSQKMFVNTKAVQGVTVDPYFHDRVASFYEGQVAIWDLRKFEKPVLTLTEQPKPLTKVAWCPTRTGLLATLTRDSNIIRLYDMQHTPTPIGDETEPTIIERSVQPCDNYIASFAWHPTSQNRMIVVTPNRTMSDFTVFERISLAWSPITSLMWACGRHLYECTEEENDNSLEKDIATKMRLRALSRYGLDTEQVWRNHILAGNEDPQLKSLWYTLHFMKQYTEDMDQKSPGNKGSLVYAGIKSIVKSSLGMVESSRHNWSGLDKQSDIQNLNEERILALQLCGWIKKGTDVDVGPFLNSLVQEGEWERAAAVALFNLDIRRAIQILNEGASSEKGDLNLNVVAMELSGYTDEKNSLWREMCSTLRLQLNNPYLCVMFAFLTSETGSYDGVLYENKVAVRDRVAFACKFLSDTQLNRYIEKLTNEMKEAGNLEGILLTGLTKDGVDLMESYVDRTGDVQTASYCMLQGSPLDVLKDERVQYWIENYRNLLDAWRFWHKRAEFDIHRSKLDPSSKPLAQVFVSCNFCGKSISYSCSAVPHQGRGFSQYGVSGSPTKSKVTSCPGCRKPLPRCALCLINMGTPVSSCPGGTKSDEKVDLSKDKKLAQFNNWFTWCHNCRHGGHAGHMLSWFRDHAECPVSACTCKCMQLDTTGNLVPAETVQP

Measured: binding result

B1: tag-free SEC13 (natural protein, human)
chain: MVSVINTVDTSHEDMIHDAQMDYYGTRLATCSSDRSVKIFDVRNGGQILIADLRGHEGPVWQVAWAHPMYGNILASCSYDRKVIIWREENGTWEKSHEHAGHDSSVNSVCWAPHDYGLILACGSSDGAISLLTYTGEGQWEVKKINNAHTIGCNAVSWAPAVVPGSLIDHPSGQKPNYIKRFASGGCDNLIKLWKEEEDGQWKEEQKLEAHSDWVRDVAWAPSIGLPTSTIASCSQDGRVFIWTCDDASSNTWSPKLLHKFNDVVWHVSWSITANILAVSGGDNKVTLWKESVDGQWVCISDVNKGQGSVSASVTEGQQNEQ
binds: all assays above
